# Test system: Escherichia coli TOP10
# Experiment: shrunken log2 fold change of peptide-encoding DNA abundance (4.5 h post-induction vs induction); higher = less antimicrobial activity (less host growth inhibition)
# Conditions: time post-induction: 4.5 h; library: site-saturation at positions 5, 18, 19, 20
# 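Note: peptides expressed intracellularly from a pBAD plasmid library in pooled LB shake-flask culture, induced with 0.3% L-arabinose, DNA abundance read by NGS, three biological replicates, DESeq2 with apeglm shrinkage.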
row,Sequence,shrunken log2 fold change
1,RRIRMRPPRLPRPRPRPCETPRP,-0.263
2,RRIRNRPPRLPRPRPRPWKPPRP,0.0219
3,RRIRFRPPRLPRPRPRPRPNPRP,0.4
4,RRIRFRPPRLPRPRPRPEWSPRP,0.219
5,RRIRWRPPRLPRPRPRPHMMPRP,-0.349
6,RRIRIRPPRLPRPRPRPSHFPRP,-0.641
7,RRIRLRPPRLPRPRPRPFNWPRP,-0.223
8,RRIRLRPPRLPRPRPRPDMEPRP,0.0384
9,RRIRARPPRLPRPRPRPDAPPRP,0.942
10,RRIRRRPPRLPRPRPRPPTFPRP,0.0767
11,RRIRSRPPRLPRPRPRPKAIPRP,0.119
12,RRIRNRPPRLPRPRPRPNVDPRP,0.112
13,RRIRYRPPRLPRPRPRPKVDPRP,-0.079
14,RRIRERPPRLPRPRPRPQCCPRP,-0.106
15,RRIRYRPPRLPRPRPRPINIPRP,-1.21
16,RRIRDRPPRLPRPRPRPVSGPRP,0.088
17,RRIRDRPPRLPRPRPRPPEHPRP,-0.0245
18,RRIRQRPPRLPRPRPRPKGQPRP,-0.0264
19,RRIRFRPPRLPRPRPRPQYIPRP,-0.0295
20,RRIRYRPPRLPRPRPRPFHEPRP,-0.245
21,RRIRFRPPRLPRPRPRPPVWPRP,0.622
22,RRIRPRPPRLPRPRPRPHSRPRP,-0.198

row,Sequence,shrunken log2 fold change
1,RRIRDRPPRLPRPRPRPELCPRP,-0.0337
2,RRIRNRPPRLPRPRPRPYWRPRP,-0.312
3,RRIRKRPPRLPRPRPRPRMCPRP,-0.211
4,RRIRQRPPRLPRPRPRPRKWPRP,0.832
5,RRIRGRPPRLPRPRPRPGKKPRP,-0.0917
6,RRIRQRPPRLPRPRPRPMNLPRP,-0.169
7,RRIRVRPPRLPRPRPRPRCLPRP,-0.16
8,RRIRVRPPRLPRPRPRPECGPRP,0.691
9,RRIRDRPPRLPRPRPRPRACPRP,0.389
10,RRIRLRPPRLPRPRPRPDYIPRP,-0.161
11,RRIRRRPPRLPRPRPRPHVSPRP,-0.0166
12,RRIRARPPRLPRPRPRPIGPPRP,0.537
13,RRIRFRPPRLPRPRPRPFPPPRP,-0.123
14,RRIRMRPPRLPRPRPRPTVRPRP,0.216
15,RRIRIRPPRLPRPRPRPQHSPRP,-0.463
16,RRIRDRPPRLPRPRPRPCNIPRP,-0.228
17,RRIRGRPPRLPRPRPRPGIFPRP,0.254
18,RRIRTRPPRLPRPRPRPKAEPRP,-0.000916
19,RRIRYRPPRLPRPRPRPNLMPRP,-0.617
20,RRIRIRPPRLPRPRPRPDFKPRP,3.01
21,RRIRHRPPRLPRPRPRPTALPRP,0.0443
22,RRIRVRPPRLPRPRPRPKHTPRP,-0.177

row,Sequence,shrunken log2 fold change
1,RRIRRRPPRLPRPRPRPYFTPRP,-0.432
2,RRIRGRPPRLPRPRPRPFRIPRP,-0.212
3,RRIRCRPPRLPRPRPRPIEPPRP,0.159
4,RRIRHRPPRLPRPRPRPEFLPRP,-0.0472
5,RRIRARPPRLPRPRPRPMLDPRP,0.504
6,RRIRARPPRLPRPRPRPPVQPRP,0.227
7,RRIRDRPPRLPRPRPRPKMVPRP,0.223
8,RRIRERPPRLPRPRPRPPLPPRP,0.151
9,RRIRTRPPRLPRPRPRPACGPRP,0.282
10,RRIRIRPPRLPRPRPRPTYLPRP,-0.463
11,RRIRLRPPRLPRPRPRPKCCPRP,-0.166
12,RRIRERPPRLPRPRPRPRLGPRP,0.157
13,RRIRNRPPRLPRPRPRPLWVPRP,-0.0871
14,RRIRFRPPRLPRPRPRPNYIPRP,-0.587
15,RRIRSRPPRLPRPRPRPKCWPRP,0.359
16,RRIRARPPRLPRPRPRPYKVPRP,-0.00867
17,RRIRRRPPRLPRPRPRPERHPRP,0.549
18,RRIRPRPPRLPRPRPRPNWPPRP,0.0357
19,RRIRERPPRLPRPRPRPYFFPRP,-0.587
20,RRIRIRPPRLPRPRPRPCGDPRP,-0.0271
21,RRIRNRPPRLPRPRPRPWWAPRP,-0.0446
22,RRIRGRPPRLPRPRPRPMFVPRP,0.39

row,Sequence,shrunken log2 fold change
1,RRIRARPPRLPRPRPRPVKNPRP,0.384
2,RRIRPRPPRLPRPRPRPKIMPRP,-0.437
3,RRIRKRPPRLPRPRPRPVYIPRP,-0.564
4,RRIRKRPPRLPRPRPRPTYDPRP,-0.0829
5,RRIRERPPRLPRPRPRPYFPPRP,-0.307
6,RRIRIRPPRLPRPRPRPENMPRP,-0.396
7,RRIRVRPPRLPRPRPRPCVDPRP,-0.0658
8,RRIRGRPPRLPRPRPRPIWYPRP,-0.114
9,RRIRYRPPRLPRPRPRPPQFPRP,-0.213
10,RRIRGRPPRLPRPRPRPKDVPRP,-0.0336
11,RRIRHRPPRLPRPRPRPPFDPRP,-0.178
12,RRIRKRPPRLPRPRPRPVGHPRP,0.224
13,RRIRRRPPRLPRPRPRPESTPRP,0.571
14,RRIRERPPRLPRPRPRPHENPRP,-0.365
15,RRIRDRPPRLPRPRPRPHNPPRP,-0.231
16,RRIRPRPPRLPRPRPRPQEVPRP,0.0706
17,RRIRFRPPRLPRPRPRPLEGPRP,0.0031
18,RRIRNRPPRLPRPRPRPCSGPRP,-0.242
19,RRIRRRPPRLPRPRPRPLMLPRP,-0.108
20,RRIRKRPPRLPRPRPRPFHAPRP,-0.179
21,RRIRERPPRLPRPRPRPQASPRP,-0.328
22,RRIRIRPPRLPRPRPRPHVTPRP,-0.132

row,Sequence,shrunken log2 fold change
1,RRIRGRPPRLPRPRPRPSYYPRP,0.118
2,RRIRIRPPRLPRPRPRPDIEPRP,-0.185
3,RRIRCRPPRLPRPRPRPEMAPRP,0.532
4,RRIRFRPPRLPRPRPRPCQHPRP,-0.397
5,RRIRERPPRLPRPRPRPSTKPRP,-0.232
6,RRIRIRPPRLPRPRPRPVPFPRP,-0.264
7,RRIRFRPPRLPRPRPRPCVHPRP,0.00355
8,RRIRHRPPRLPRPRPRPGTPPRP,0.104
9,RRIRSRPPRLPRPRPRPYARPRP,-0.351
10,RRIRCRPPRLPRPRPRPQHLPRP,-0.0397
11,RRIRRRPPRLPRPRPRPQGSPRP,0.0234
12,RRIRIRPPRLPRPRPRPPELPRP,-0.123
13,RRIRWRPPRLPRPRPRPHCCPRP,-0.124
14,RRIRERPPRLPRPRPRPKFVPRP,-0.287
15,RRIRGRPPRLPRPRPRPIMSPRP,0.0881
16,RRIRARPPRLPRPRPRPCLCPRP,-0.495
17,RRIRPRPPRLPRPRPRPENMPRP,-0.395
18,RRIRRRPPRLPRPRPRPEGLPRP,2.59
19,RRIRQRPPRLPRPRPRPMQKPRP,0.0524
20,RRIRPRPPRLPRPRPRPSQHPRP,-0.278
21,RRIRFRPPRLPRPRPRPKWSPRP,0.321

# Source: the supplement of paper PMC9112550, “Optimization of the antimicrobial peptide Bac7 by deep mutational scanning” (BMC Biology, 2022)
